This note sets out measurements from publication PMC4423619 (Journal of glycomics & lipidomics, 2015).

The target of the assay is T1, rat testis FSH receptor (rat (endogenous in rat testis), UniProt P20395 18-692).
T1 sequence (looked up): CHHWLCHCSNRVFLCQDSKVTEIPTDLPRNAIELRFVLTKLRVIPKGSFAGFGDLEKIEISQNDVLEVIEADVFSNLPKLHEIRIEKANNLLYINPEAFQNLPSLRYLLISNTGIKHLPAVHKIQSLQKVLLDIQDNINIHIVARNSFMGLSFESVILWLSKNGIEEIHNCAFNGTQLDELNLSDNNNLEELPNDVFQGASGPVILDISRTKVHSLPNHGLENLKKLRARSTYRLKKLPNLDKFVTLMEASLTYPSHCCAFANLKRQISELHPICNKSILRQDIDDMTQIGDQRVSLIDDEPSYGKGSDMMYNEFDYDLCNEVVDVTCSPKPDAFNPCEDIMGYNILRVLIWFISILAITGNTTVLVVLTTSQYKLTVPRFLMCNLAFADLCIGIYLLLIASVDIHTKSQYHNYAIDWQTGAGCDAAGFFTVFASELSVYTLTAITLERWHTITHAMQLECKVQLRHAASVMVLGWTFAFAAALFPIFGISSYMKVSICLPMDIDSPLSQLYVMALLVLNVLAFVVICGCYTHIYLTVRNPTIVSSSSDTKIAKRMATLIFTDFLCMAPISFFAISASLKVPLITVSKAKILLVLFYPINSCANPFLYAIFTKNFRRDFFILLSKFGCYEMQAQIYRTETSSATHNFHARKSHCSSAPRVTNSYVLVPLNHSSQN
The assay is described as follows: radioligand binding.

B1: human pituitary hFSH^24 glycoform (fully-glycosylated hFSH^24) (complex)
chain 1: not shown
chain 2: NSCELTNITIAIEKEECRFCISINTTWCAGYCYTRDLVYKDPARPKIQKTCTFKELVYETVRVPGCAHHADSLYTYPVATQCHCGKCDSDSTDCTVRGLGPSYCSFGEMKE
modifications: N-glycans at Asn52 and Asn78 | N-glycans at Asn7 and Asn24
In turn, B1 showed an ID50 of 269 ng.
